Measurements from publication PMC2137744.

Biological target: H chains of human 7S γ-globulin reduced without alkylation (human)
Assay: co-sedimentation

- yield of doubly labeled 7S material: 30 per cent
Substance: L chains of human 7S γ-globulin reduced without alkylation (natural protein)
